± gives the uncertainty stated by the source.
Experiment: amyloid nucleation score (Sup35N fusion, yeast selection) (log enrichment); library NNK1; higher = more nucleation; inactive = no reads after selection
Procedure, shortened: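 After 24 hours of induction with 100 μM copper sulfate, psi-negative yeast expressing peptides of 20 random codons fused to Sup35N were grown for 7 days at 30°C on medium lacking adenine and uracil. Input and output plasmid inserts were sequenced with Illumina, and sequences with under 100 input reads were discarded. Scores for nucleation are the DiMSum log enrichment of output over input reads, centred on the mode score of non-aggregating sequences.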

Substance	amyloid nucleation score
HFFVVNQSYPNHFHLLGI	5.05 ± 0.094
HFGKRHSYRYLDDTCAQNLY	-0.811 ± 0.63
HFMAI	-1.55 ± 0.8
HFVCYNCWGYICTVCLTSRE	8.228 ± 0.065
HFVRFRRAMSRHGRVAST	-0.979 ± 0.75
HGCKYAKGASDLYDIMCFCW	0.602 ± 0.38
HGCSSVILVGMRAEEIFLYY	2.71 ± 0.14
HGTVNLIYVNEI	0.133 ± 0.67
HHGSCFEGLFCSETFCLAIM	6.495 ± 0.055
HHSRIFICDLRWSSTVRHCK	1.39 ± 0.16
HIFVMIYVLMEDGSKKLTSM	0.99 ± 0.85
HIGGTFVWLEFPCKWGLTED	4.46 ± 0.069
HITDYRVRT	1.27 ± 0.41
HKNEYSGFKRSKLLYRARMR	0.964 ± 0.68
HKTFGCCLDLWHIMPHFIIL	-0.396 ± 0.37
HLAINNADTALGSYKGQVSV	2.36 ± 0.11
HLGNSSNQIILHQCI	4.67 ± 0.059
HLIKRYGYSCVRWVC	0.003 ± 0.53
HLILGLL	-0.54 ± 0.47
HLMMTLFFVPVLMCITFTDG	-0.032 ± 0.3
HLNNSLLELVNCRKYSIKGC	0.088 ± 0.35
HLPGFNIVSYVQSESIMF	-0.08 ± 0.2

Substance	amyloid nucleation score
HLRRYMDRYRRGQYGFSYFW	1.09 ± 0.64
HLRWQMDWCSHNNGMDVMRG	3.71 ± 0.12
HLVDFMDE	0.105 ± 0.3
HLVLFYVSLITFARYSFMGV	-0.058 ± 0.3
HLWRVRLV	0.01 ± 0.61
HLYMDSSILRLVEYTWCFKV	0.085 ± 0.96
HMLWSFLLITWYGMICRKGG	-0.15 ± 0.39
HMRDLEDPQWSDY	-0.711 ± 0.32
HNFEFTRLAHLDSSTL	0.248 ± 0.47
HNFLSYFQNRNDYCASN	-0.503 ± 0.6
HNHSTYFHYRFGVSLVLTSR	2.29 ± 0.38
HPLLMYWRRTFVEHRLYLT	0.031 ± 1.2
HPLWGPYR	0.518 ± 0.59
HPSTRCAVANDNIWPLSGPR	0.628 ± 0.75
HPSVGYSSLVV	0.841 ± 0.62
HPYSFWWSWAVKPLPGLRRI	0.485 ± 0.73
HQKACCSRLMNCGYNSAKWR	-0.612 ± 0.89
HRCRREYSQSSGSWDESIEN	1.05 ± 0.14
HRRLRMRT	-0.469 ± 0.79
HRSRITLANVS	-0.666 ± 0.32
HRSSNVSGLVWSFHRMKYVI	0.599 ± 0.79
HRVLYIPALDNVVCRDIWRV	1.29 ± 0.46

Substance	amyloid nucleation score
HSAFSWNYRDSFVEGCSSHG	0.018 ± 0.3
HSCAFNESHVFMHILCVISQ	-0.319 ± 0.44
HSGGVTIQLCSKACVYSGAG	0.754 ± 0.19
HSIVDSRLSCICILSS	4.16 ± 0.16
HSLRQKVPM	0.227 ± 0.3
HSPLTRNVRSCVK	0.718 ± 0.36
HSRLLASYS	1.34 ± 0.43
HSSNFGRDSNSWLRAVD	-0.3 ± 0.61
HSTTLPLLWAYILYPAFG	-0.267 ± 0.37
HSYTTV	-0.905 ± 2.1
HVDFQVASSDEDLIHLFLYH	0.258 ± 0.54
HVFIIQRMSWGVLRLLVSCR	-0.548 ± 0.52
HVHVTACCRLM	7.44 ± 0.077
HVIYRLRGFITSSPFMTLRT	0.577 ± 0.45
HVSACRNKIHLWSRTHLSGE	0.83 ± 0.5
HVVKCGHYLRRVRNMGKLEF	-0.163 ± 0.79
HVYMGYICCHAETDACMGCR	4.57 ± 0.14
HWYVTVCLVSMCQVGKGKDN	3.5 ± 0.087
HYKDSITVFFIFHIPIQMMM	4.25 ± 0.057
HYQERC	-0.604 ± 0.34
HYRRVTVMCPLRVFVYAPKT	5.61 ± 0.094
HYVGSLMVSW	0.188 ± 0.81

Substance	amyloid nucleation score
HYVRNPARD	inactive
HYVVVKRRPMDMSGLVGWDA	0.036 ± 0.43
IACSARMFYDS	0.399 ± 0.47
IAGIEGPI	-0.182 ± 1.3
IASSSTRFLYV	0.813 ± 0.51
IAVDTRVGASYVCGSS	-0.535 ± 0.79
IAYVQFAPRKY	0.776 ± 0.36
ICCGCRYFFSTTSV	6.7 ± 0.06
ICELIWGGRRSNGINGSTSG	0.741 ± 0.23
ICGRNTLCARRRTSRLVGIE	1.1 ± 0.97
ICHGAEHNV	-0.735 ± 1.7
ICIREPTNESLAQLSDGVIR	2.06 ± 0.6
ICLITVSMYKSRWIFSKKLT	-0.073 ± 0.54
ICLMFLSGTIDYYLY	0.111 ± 0.84
ICYKGREHKPRIVNIGSDVR	inactive
ICYNKSSP	-0.097 ± 1.2
ICYSGHERYWLNLGICEGDS	0.186 ± 0.32
IDGCLPTNRVGSSRSVRGNV	inactive
IDNGDCYNDRVLADTVS	-0.577 ± 0.6
IDSKFQPK	0.972 ± 0.84
IDVWCESRVWRTWVYLGVRV	0.903 ± 0.56

Source: the supplement of paper PMC12042874
